Laboratory results published in patent publication US20230126400A1 (Alector, published 2023).
Ends that are not written are not given here. * marks the point of attachment. Biotin = O=C1N[C@H]2[C@H](CS[C@H]2CCCCC(=O)*)N1

T1: human MS4A4A ECL2 peptide (amino acid residues 159-179), free (human)
T1 construct: synthetic peptide; also called huMS4A4A-ELC2 free-peptide
T1 peptide: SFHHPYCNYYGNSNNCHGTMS

T2: human MS4A4A ECL1 peptide (amino acid residues 86-98) (human)
T2 construct: synthetic peptide
T2 peptide: CMASNTYGSNPIS

T3: peptide 4A.6 (human)
T3 construct: 15-mer of human MS4A4A
T3 peptide: Biotin-FYSFHHPYCNYYGNS

T4: peptide 4A.5 (human)
T4 construct: 15-mer of human MS4A4A
T4 peptide: Biotin-LAFYSFHHPYCNYYG

T5: peptide 4A.10 (human, cysteine pairing not given here)
T5 construct: 15-mer of human MS4A4A
T5 peptide: Biotin-CNYYGNSNNCHGTMS

T6: peptide 4A.3 (human)
T6 construct: 15-mer of human MS4A4A
T6 peptide: Biotin-CMASNTYGSNPISVY

T7: peptide 4A.8 (human, cysteine pairing not given here)
T7 construct: 15-mer of human MS4A4A
T7 peptide: Biotin-HHPYCNYYGNSNNCH

T8: peptide 4A.1 (human)
T8 construct: 15-mer of human MS4A4A
T8 peptide: Biotin-ITMMCMASNTYGSNP

T9: peptide 4A.7 (human)
T9 construct: 15-mer of human MS4A4A
T9 peptide: Biotin-SFHHPYCNYYGNSNN

T10: peptide 4A.4 (human)
T10 construct: 15-mer of human MS4A4A
T10 peptide: Biotin-ASNTYGSNPISVYIG

T11: peptide 4A.2 (human)
T11 construct: 15-mer of human MS4A4A
T11 peptide: Biotin-MMCMASNTYGSNPIS

T12: peptide 4A.12 (human)
T12 construct: 15-mer of human MS4A4A
T12 peptide: Biotin-GNSNNCHGTMSILMG

T13: peptide 4A.11 (human)
T13 construct: 15-mer of human MS4A4A
T13 peptide: Biotin-YYGNSNNCHGTMSIL

T14: peptide 4A.9 (human, cysteine pairing not given here)
T14 construct: 15-mer of human MS4A4A
T14 peptide: Biotin-PYCNYYGNSNNCHGT

B1: anti-MS4A4A antibody 4A-219 (murine) (antibody, V domains shown)
VH: QVQMKQSGPGLVQPSQSLSITCTVSGFSLTSYGVHWVRQSPGKGLEWLGVIWSGGSTDYNAAFISRLSISKDNSKSQVFFKMNSLQADDTAIYYCVRLYYGYDGFAYWGQGTLVTVSS
VL: DIVMTQSHKFMSTSVGDRVSITCKASQDVSTAVAWYQQKPGQSPKLLIYSASYRYTGVPDRFTGSGSGTDFTFTISSVQAEDLAVYYCQQHYSTPLTFGAGTKLELK
notes: murine hybridoma antibody
B2: anti-MS4A4A antibody 4A-21 (murine) (antibody, IgG1, V domains shown)
VH: QIQLVQSGPELKKPGETVKISCKASGYIFTSYGLSWVKQTPGKGLKWMGWINTYSGVPTYANDFKGRFAFSLETSASTTYLRINNLKNDDTATYFCARSLVDYWGQGTPLTVSS
VL: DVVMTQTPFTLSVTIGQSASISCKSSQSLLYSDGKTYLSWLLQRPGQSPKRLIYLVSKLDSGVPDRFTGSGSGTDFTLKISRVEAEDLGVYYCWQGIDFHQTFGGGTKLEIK
notes: murine hybridoma antibody, msIgG1; also called 4A-21 (msIgG1)

How the values were obtained:
[1] = target: human MS4A4A (human, UniProt Q96JQ5 1-239); assay: FACS, U937 cells, supernatant; U937 cells overexpressing h4A, ratio over parental U937; parental U937 itself scores +
Procedure: Positive clones identified in Example 22 above were expanded and then rescreened for specificity against U937, K562, and/or 300.19 cells stably overexpressing human MS4A4A or cyno MS4A4A and parental U937, K562, and/or 300.19 cells. These experiments were performed using supernatants from hybridoma clones which had undergone further expansion after initial selection. Briefly, stably transfected cells were labeled with LIVE/DEAD Fixable Aqua Dead Cell Stain Kit (ThermoFisher Scientific Cat#L34957) on ice for 30 minutes. […] 2×10⁵ cells were aliquoted per well in 96-well U-bottom plates and incubated with 50 μl of culture supernatant on ice for 30 minutes. […] Following this secondary incubation, the cells were again washed twice with ice-cold FACS buffer and resuspended in a final volume of 200 μl of FACS buffer. Analysis was performed on a FACS Canto system (BD Biosciences), with gates drawn to exclude dead (Aqua-positive) cells.
The APC ratio was calculated for each antibody as follows. […] For cell lines overexpressing human MS4A4A (h4A) or cyno MS4A4A (cy4A), the ration was calculated by comparing the binding measured to the binding observed on the corresponding parental cell lines.

[2] = target: T1, human MS4A4A ECL2 peptide (amino acid …); assay: peptide ELISA, supernatant
[3] = target: T2, human MS4A4A ECL1 peptide (amino acid …); assay: peptide ELISA
How it was run: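 Free or BSA-conjugated peptides were coated at 2 or 10 […] in 0.05M carbonate buffer, pH 9.6, overnight at 4 °C, then blocked 1 h with PBS+0.5% BSA+0.05% Tween20. Antibodies were bound 30 min at room temperature with shaking. TMB was developed 5-10 min, stopped, and absorbance read at 650 nm.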

[4] = target: T15, cynomolgus (cyno) MS4A4A (cynomolgus); assay: FACS, HEK293, supernatant
T15 construct: also called cy4A; Cyno 4A

[5] = target: T1, human MS4A4A ECL2 peptide (amino acid …); assay: array SPR (Carterra MX-96), antibody captured, peptide in solution
Procedure: Binding kinetic characterization of the anti-MS4A4A antibodies to MS4A4A ECL1 and ECL2 and to MS4A6A ECL1 and ECL2 peptides was performed by Carterra (South San Francisco, Calif.) using a proprietary array Surface Plasmon Resonance (SPR) instrument (MX-96) as follows. Antibodies were captured onto a CMD500D chip (Xantec # SPMX CMD500D) using the Continous Flow Microspotter (CFM). First, the chip was activated with 100 mM MES pH 5.5, 100 μL EDC (133 mM final), 100 μL of S-NHS (33.3 mM final), for 7 minutes. […] Anti-MS4A4A hydridoma supernatant or purified anti-MS4A4A antibodies were diluted in HBS-EP+ buffer (Teknova Cat # H8022) and then printed as duplicates with a 20 minute and a 5-minute print from the same sample solution.
These were then injected on the chip for five minutes, followed by a seven-minute dissociation period at 8 uL per second in a non-regenerative kinetic series. Duplicate measurements for each anti-MS4A4A antibody were taken to ensure reproducibility. Association rates (Kon) and dissociation rates (Koff) were calculated using a single one-to-one Langmuir binding model. The equilibrium dissociation constant (KD) was calculated as the ration of Koff/Kon.

[6] = target: T3, peptide 4A.6; assay: array SPR, peptide on streptavidin chip
Procedure: (§1) Epitope binding characteristics of anti-MS4A4A antibodies are determined by two complementary approaches. First, a panel of overlapping peptides derived from the extracellular loops (ECLs) of human MS4A4A (SEQ ID NO:1) and human MS4A6A (SEQ ID NO: 291) were synthesized by JPT peptides (Berlin, Germany). These peptides were 15 amino acids in length, each offset by 2 amino acids. The peptides were biotinylated on the N-terminus. […] Anti-MS4A4A antibodies of the present disclosure and commercially-available anti-MS4A4A antibodies were tested for binding to the various linear peptides by Carterra (South San Francisco, Calif., USA) using a proprietary array SPR instrument (MX-96).
(§2) The peptide library was printed onto a streptavidin-coated chip (Xantec SAD50M, Dusseldorf, Germany) using the Continuous Flow Microspotter (CFM). First, the chip was activated with 100 mM MES, pH 5.5, 100 μL EDC (133 mM final), 100 μL of S-NHS (33.3 mM final). The peptide library was immobilized onto the chip at 250 nM per peptide diluted into HBS-EP+buffer (Teknova Cat # H8022) with 1 mg/ml BSA and 1 μg/ml mouse IgG-Biotin. Following immobilization, the chip surface was deactivated with 1M ethanolamine at pH 8.5 for 10 minutes. Hybridoma supernatants and purified anti-MS4A4A antibodies were diluted in HBS-EP+buffer with 1 mg/ml BSA and injected onto the chip. Duplicate measurements for each anti-MS4A4A antibody were taken to ensure reproducibility. Binding characteristics were determined for each peptide-antibody combination, allowing the mapping of the linear peptide region each antibody interacts with.

[7] = target: T4, peptide 4A.5; assay: array SPR, peptide on streptavidin chip
Procedure: as §1, §2

[8] = target: T5, peptide 4A.10; assay: array SPR, peptide on streptavidin chip
Procedure: as §1, §2

[9] = target: T6, peptide 4A.3; assay: array SPR, peptide on streptavidin chip
Procedure: as §1, §2

[10] = target: T7, peptide 4A.8; assay: array SPR, peptide on streptavidin chip
Procedure: as §1, §2

[11] = target: T8, peptide 4A.1; assay: array SPR, peptide on streptavidin chip
Procedure: as §1, §2

[12] = target: T9, peptide 4A.7; assay: array SPR, peptide on streptavidin chip
Procedure: as §1, §2

[13] = target: T10, peptide 4A.4; assay: array SPR, peptide on streptavidin chip
Procedure: as §1, §2

[14] = target: T11, peptide 4A.2; assay: array SPR, peptide on streptavidin chip
Procedure: as §1, §2

[15] = target: T12, peptide 4A.12; assay: array SPR, peptide on streptavidin chip
Procedure: as §1, §2

[16] = target: T13, peptide 4A.11; assay: array SPR, peptide on streptavidin chip
Procedure: as §1, §2

[17] = target: T14, peptide 4A.9; assay: array SPR, peptide on streptavidin chip
Procedure: as §1, §2

| Binder | fold increase in MFI [1] [fold] | binding result [2] | binding result [3] | Cyno 4A:parental cell ratio [4] [ratio] | Kd [5] [nM] | koff [5] [s⁻¹] | kon [5] [M⁻¹ s⁻¹] | SPR binding signal [6] | SPR binding signal [7] | SPR binding signal [8] | SPR binding signal [9] | SPR binding signal [10] | SPR binding signal [11] | SPR binding signal [12] | SPR binding signal [13] | SPR binding signal [14] | SPR binding signal [15] | SPR binding signal [16] | SPR binding signal [17] |
| --- | --- | --- | --- | --- | --- | --- | --- | --- | --- | --- | --- | --- | --- | --- | --- | --- | --- | --- | --- |
| B1 | > 2 | no binding | no binding | – | – | – | – | – | – | – | – | – | – | – | – | – | – | – | – |
| B2 | – | – | no binding | 1.31 | 31 | 0.0078 | 250000 | 486 | 383 | -4.5 | -10.6 | 309 | -11.2 | 446 | -7.9 | -11.5 | -5.2 | -6.5 | 225 |
